Experimental data as given in the supplement of paper PMC10567573.

B1: C20orf112 (parent)
chain: YANGGLNYSYRGYGALSSNLQPPA

Variants of: B1
Assay: protein stability index of a GFP-peptide fusion (GPS, HEK-293T) (PSI 1-6); higher = more stable
Conditions: c terminus: a fixed tail appended
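Note: lentivirally expressed fusions sorted by FACS into six bins by GFP to DsRed ratio, PSI derived from sequencing read proportions per bin multiplied by bin number.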

First: YANGGLNYSYRGYGALSSNLYPPA
Second: YANGGLNYSYRGYGALSSNLHPPA
The protein stability index of the first is higher: 2.29 for the first, 2.04 for the second.

Compared with YANGGLNYSYRGYGALSSNLKPPA, YANGGLNYSYRGYGALSSNLNPPA is lower in protein stability index: 2.17 for the first, 1.64 for the second.

First: YANGGLNYSYRGYGALSANLQPPA
Second: YANGGLNYSYRGYGALSGNLQPPA
The protein stability index of the first is higher: 2.15 for the first, 1.58 for the second.

Compared with YANGGLNYSYRGYGALSVNLQPPA, YANGGLNYSYRGYGALSINLQPPA is higher in protein stability index: 1.73 for the first, 1.78 for the second.

Compared with YANGGLNYSYRGYGALSPNLQPPA, YANGGLNYSYRGYGALSSNLQPDA is lower in protein stability index: 2.2 for the first, 2.09 for the second.

Going from YANGGLNYSYRGYGALSSNLQPNA to YANGGLNYSYRGYGALSSNLQPRA, the protein stability index falls from 2.17 to 1.81.

First: YANGGLNYSYRGYGALSSNLQPHA
Second: YANGGLNYSYRGYGALSSNLQPYA
The protein stability index of the first is lower: 1.34 for the first, 1.9 for the second.

Compared with YANGGLNYSYRGYGALSSNLQPVA, YANGGLNYSYRGYGALSSNLQPEA is higher in protein stability index: 1.84 for the first, 2.05 for the second.

Compared with YANGGLNYSYRGYGALSSNPQPPA, YANGGLNYSYRGYGALSSNVQPPA is lower in protein stability index: 1.88 for the first, 1.84 for the second.

First: YANGGLNYSYRGYGALSSNKQPPA
Second: YANGGLNYSYRGYGALSSNTQPPA
The protein stability index of the first is higher: 2.27 for the first, 1.55 for the second.

First: YANGGLNYSYRGYGALSSNIQPPA
Second: YANGGLNYSYRGYGALSSNAQPPA
The protein stability index of the first is higher: 2.54 for the first, 1.79 for the second.

First: YANGGLNYSYRGYGALSSNCQPPA
Second: YANGGLNYSYRGYGALSSNQQPPA
The protein stability index of the first is higher: 2.7 for the first, 1.71 for the second.

Compared with YANGGLNYSYRGYGALSSNHQPPA, YANGGLNYSYRGYGALSSNRQPPA is higher in protein stability index: 1.69 for the first, 1.73 for the second.

Compared with YANGGLNYSYRGYGALSSNNQPPA, YANGGLNYSYRGYGALSSNSQPPA is higher in protein stability index: 2.11 for the first, 2.34 for the second.

Compared with YANGGLNYIYRGYGALSSNLQPPA, YANGGLNYAYRGYGALSSNLQPPA is lower in protein stability index: 2.58 for the first, 2.35 for the second.

First: YANGGLNYPYRGYGALSSNLQPPA
Second: YANGGLNYVYRGYGALSSNLQPPA
The protein stability index of the first is lower: 1.7 for the first, 2.6 for the second.

Compared with YANGGLNYEYRGYGALSSNLQPPA, YANGGLNYSYRLYGALSSNLQPPA is higher in protein stability index: 1.43 for the first, 2.31 for the second.

Compared with YANGGLNYSYRWYGALSSNLQPPA, YANGGLNYSYRMYGALSSNLQPPA is higher in protein stability index: 2.08 for the first, 2.48 for the second.

Going from YANGGLNYSYRVYGALSSNLQPPA to YANGGLNYSYRIYGALSSNLQPPA, the protein stability index falls from 3.16 to 2.72.

Going from YANGGLNYSYRTYGALSSNLQPPA to YANGGLNYSYRYYGALSSNLQPPA, the protein stability index rises from 2.23 to 3.

Going from YANGGLNLSYRGYGALSSNLQPPA to YANGGLNHSYRGYGALSSNLQPPA, the protein stability index falls from 1.94 to 1.85.

First: YANGGLNVSYRGYGALSSNLQPPA
Second: YANGGLNKSYRGYGALSSNLQPPA
The protein stability index of the first is higher: 2.19 for the first, 1.83 for the second.

First: YANGGLNFSYRGYGALSSNLQPPA
Second: YANGGLNSSYRGYGALSSNLQPPA
The protein stability index of the first is lower: 1.73 for the first, 1.89 for the second.

First: YANGGLNDSYRGYGALSSNLQPPA
Second: YANGGLNYSYRGYGALKSNLQPPA
The protein stability index of the first is higher: 1.95 for the first, 1.94 for the second.

Going from YANGGLNYSYRGYGALQSNLQPPA to YANGGLNYSYRGYGALISNLQPPA, the protein stability index rises from 1.55 to 3.55.

Going from YANGGLNYSYRGYGALCSNLQPPA to YANGGLNYSYRGYGALNSNLQPPA, the protein stability index falls from 2.2 to 1.88.

First: YANGGLNYSYRGYGALTSNLQPPA
Second: YANGGLNYSYRGYGALVSNLQPPA
The protein stability index of the first is lower: 2.15 for the first, 2.33 for the second.

Going from YANGGLVYSYRGYGALSSNLQPPA to YANGGLAYSYRGYGALSSNLQPPA, the protein stability index rises from 1.15 to 2.81.

Compared with YANGGLFYSYRGYGALSSNLQPPA, YANGGLQYSYRGYGALSSNLQPPA is lower in protein stability index: 3.66 for the first, 2.08 for the second.

Going from YANGGLRYSYRGYGALSSNLQPPA to YANGGLYYSYRGYGALSSNLQPPA, the protein stability index rises from 1.52 to 2.53.

Compared with YANGGLSYSYRGYGALSSNLQPPA, YANGGLEYSYRGYGALSSNLQPPA is higher in protein stability index: 2.38 for the first, 2.52 for the second.

Compared with YANGGLHYSYRGYGALSSNLQPPA, YANGGLNYSYRGYGASSSNLQPPA is lower in protein stability index: 3.47 for the first, 2.03 for the second.

Going from YANGGLNYSYRGYGATSSNLQPPA to YANGGLNYSYRGYGAFSSNLQPPA, the protein stability index falls from 1.76 to 1.67.

Compared with YANGGLNYSYRGYGAPSSNLQPPA, YANGGLNYSYRGYGAHSSNLQPPA is lower in protein stability index: 2.57 for the first, 2.48 for the second.

Going from YANGGLNYSYRGYGAVSSNLQPPA to YANGGLNYSQRGYGALSSNLQPPA, the protein stability index falls from 2.21 to 1.77.

Compared with YANGGLNYSTRGYGALSSNLQPPA, YANGGLNYSERGYGALSSNLQPPA is lower in protein stability index: 2.25 for the first, 1.32 for the second.

Compared with YANGGLNYSNRGYGALSSNLQPPA, YANGGLNYSIRGYGALSSNLQPPA is higher in protein stability index: 1.89 for the first, 1.99 for the second.

Compared with YANGGLNYSDRGYGALSSNLQPPA, YANGGLNYSRRGYGALSSNLQPPA is higher in protein stability index: 1.54 for the first, 2.01 for the second.

Going from YANGGLNYSMRGYGALSSNLQPPA to YANGGLNYSPRGYGALSSNLQPPA, the protein stability index falls from 2.97 to 1.92.

Going from YANGRLNYSYRGYGALSSNLQPPA to YANGSLNYSYRGYGALSSNLQPPA, the protein stability index falls from 1.98 to 1.65.

Going from YANGWLNYSYRGYGALSSNLQPPA to YANGCLNYSYRGYGALSSNLQPPA, the protein stability index falls from 2.37 to 2.2.

Going from YANGELNYSYRGYGALSSNLQPPA to YANGYLNYSYRGYGALSSNLQPPA, the protein stability index falls from 2.4 to 1.86.

Going from YANGKLNYSYRGYGALSSNLQPPA to YANGALNYSYRGYGALSSNLQPPA, the protein stability index rises from 1.82 to 1.99.

Going from YAPGGLNYSYRGYGALSSNLQPPA to YAEGGLNYSYRGYGALSSNLQPPA, the protein stability index falls from 2.35 to 1.6.

Compared with YAGGGLNYSYRGYGALSSNLQPPA, YASGGLNYSYRGYGALSSNLQPPA is higher in protein stability index: 1.98 for the first, 1.99 for the second.

Compared with YAFGGLNYSYRGYGALSSNLQPPA, YAAGGLNYSYRGYGALSSNLQPPA is lower in protein stability index: 2.04 for the first, 1.64 for the second.

First: YAMGGLNYSYRGYGALSSNLQPPA
Second: YACGGLNYSYRGYGALSSNLQPPA
The protein stability index of the first is lower: 1.5 for the first, 1.69 for the second.
